Measured values from patent EP1728864A1 (dated 2006).

Tests used:
[1] = biological target: T1, human gp39 (cell-expressed, full length) (human, UniProt P29965 1-261); experiment: cell-based or functional assay
T1 sequence (looked up): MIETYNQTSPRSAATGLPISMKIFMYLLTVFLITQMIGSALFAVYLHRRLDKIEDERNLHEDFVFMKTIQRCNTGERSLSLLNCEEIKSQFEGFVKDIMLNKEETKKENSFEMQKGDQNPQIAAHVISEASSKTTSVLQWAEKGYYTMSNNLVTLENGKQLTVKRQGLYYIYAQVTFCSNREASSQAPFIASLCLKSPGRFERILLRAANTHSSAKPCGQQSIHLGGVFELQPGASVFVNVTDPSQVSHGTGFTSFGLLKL

[2] = biological target: T1, human gp39 (cell-expressed, full length); experiment: saturation binding of iodinated protein to BMS-10 Jurkat cells
[3] = biological target: sgp39 mutant F201/A-E202/A (murine; human); experiment: ELISA on captured mutant sgp39
[4] = biological target: sgp39 mutant E129/A (murine; human); experiment: ELISA on captured mutant sgp39
[5] = biological target: sgp39 mutant N180/A (murine; human); experiment: ELISA on captured mutant sgp39
[6] = biological target: sgp39 mutant K143/A (murine; human); experiment: ELISA on captured mutant sgp39
[7] = biological target: sgp39 mutant S131/A-T135/A (murine; human); experiment: ELISA on captured mutant sgp39
[8] = biological target: sgp39 mutant Y145/A (murine; human); experiment: ELISA on captured mutant sgp39
[9] = biological target: T1, human gp39 (cell-expressed, full length); experiment: saturation binding of radiolabeled protein to gp39+ Jurkat cells

| Binder | IgG synthesis, % of medium only control, 0.94 x10^12 binding sites/ml [1] | IgG synthesis, % of medium only control, 1.88 x10^12 binding sites/ml [1] | IgG synthesis, % of medium only control, 3.76 x10^12 binding sites/ml [1] | IgG synthesis, % of medium only control, 7.53 x10^12 binding sites/ml [1] | IgM synthesis, % of medium only control, 0.94 x10^12 binding sites/ml [1] | IgM synthesis, % of medium only control, 1.88 x10^12 binding sites/ml [1] | IgM synthesis, % of medium only control, 3.76 x10^12 binding sites/ml [1] | IgM synthesis, % of medium only control, 7.53 x10^12 binding sites/ml [1] | Kd [2] | % of binding to wild-type sgp39 [3] | % of binding to wild-type sgp39 [4] | % of binding to wild-type sgp39 [5] | % of binding to wild-type sgp39 [6] | % of binding to wild-type sgp39 [7] | % of binding to wild-type sgp39 [8] | fold greater affinity than 106 sFv-Ig [9] |
| --- | --- | --- | --- | --- | --- | --- | --- | --- | --- | --- | --- | --- | --- | --- | --- | --- |
| 106 sFv-Ig (scFv, VL-linker-VH-human Ig, monomeric; L6 V kappa leader used for secretion; not shown: hinge-CH2-CH3 of human IgG1) scFv: DIQMTQSPASLSASVGETVTITCRASETIYSYLAWYQQKQGRSPQLLVYNAKTLAEGVPSRFSGSGSGTQFSLKINSLQPEDFGSYYCQHHYNTPLTFGTGTKLELKRGGGGSGGGGSGGGGSEVKLVESGGGLVKPGGSLKLSCTTSGFTFNNYAMSWVRQTPEKRLEWVASISSGDSTYYFDSVRGRFTISRDNARNILYLQMSSLRSEDTAMYYCARHYDYDSYAMDYWGQGTSVTVS | 21% | 10% | 12% | 14% | 19% | 12% | 12% | 12% | 1.6 nM | – | – | – | – | – | – | – |
| 39-1.7 (antibody, mouse IgG2b, V domains shown) VH: EVQLQQSGPELVKPGASVKMSCKASGYTFTDYYMKWVKQSHGKSLEWIGNINPNNGDTFFNQKFEGKATLTVDKSSSAAYMQLNSLTSEDSAVKKCARGPGTNYFDYWGQGTTLTVSS VL: DIVLTQSPVSLAVSLGQRVTISCRASQSVSSSTNSYMHWYQQKPGQPPKLLIKYASNLESGVPARFSGSGSGTDFTLNIHPVEEEDTATYYCQHSWEIPFTFGSGTKLEIRR | 60% | 11% | 17% | 12% | 64% | 29% | 24% | 14% | – | 112% | 70% | 93% | 5% | 89% | 106% | – |
| 39-1.106 (antibody, mouse IgG1, V domains shown, murine IgG1, kappa) VH: EVKLVESGGGLVKPGGSLKLSCTTSGFTFNNYAMSWVRQTPEKRLEWVASISSGDSTYYFDSVRGRFTISRDNARNILYLQMSSLRSEDTAMYYCARHYDYDSYAMDYWGQGTSVTVS VL: DIQMTQSPASLSASVGETVTITCRASETIYSYLAWYQQKQGRSPQLLVYNAKTLAEGVPSRFSGSGSGTQFSLKINSLQPEDFGSYYCQHHYNTPLTFGTGTKLELKR | 37% | 26% | 24% | 11% | 34% | 27% | 19% | 25% | 0.4 nM | 9% | 130% | 144% | 52% | 113% | 124% | ~3 fold |
